From patent US6440702

B1: recombinant human CNTF (ciliary neurotrophic factor) (ligand)
chain: AFTEHSPLTPHRRDLCSRSIWLARKIRSDLTALTESYVKHQGLNKNINLDSADGMPVASTDQWSELTEAERLQENLQAYRTFHVLLARLLEDQQVHFTPTEGDFHQAIHTLLLQVAAFAYQIEELMILLEYKIPRNEADGMPINVGDGGLFEKKLWGLKVLQELSQWTVRSIHDLRFISSHQTGIPARGSHYIANNKKM
notes: Position numbers (C17, Q63) count the methionine as 1; also called rHCNTF; hCNTF
B2: recombinant rat CNTF (ciliary neurotrophic factor) (ligand)
chain: AFAEQTPLTLHRRDLCSRSIWLARKIRSDLTALMESYVKHQGLNKNINLDSVDGVPVASTDRWSEMTEAERLQENLQAYRTFQGMLTKLLEDQRVHFTPTEGDFHQAIHTLMLQVDAFAYQLEELMVLLEQKIPENEADGMPATVGDGGLFEKKLWGLKVLQELSQWTVRSIHDLRVISSHQMGISALESHYGAKDKQM
notes: also called unlabelled rat CNTF

Tests used:
[1] = target: T1, rat CNTF receptor on rat superior cervical ganglia (SCG) neurons (rat, UniProt Q08406 23-342); assay: displacement of 125I-rat CNTF from rat SCG neuron monolayers
T1 construct: whole, on cells; also called rat receptor; SCGs
T1 sequence (looked up): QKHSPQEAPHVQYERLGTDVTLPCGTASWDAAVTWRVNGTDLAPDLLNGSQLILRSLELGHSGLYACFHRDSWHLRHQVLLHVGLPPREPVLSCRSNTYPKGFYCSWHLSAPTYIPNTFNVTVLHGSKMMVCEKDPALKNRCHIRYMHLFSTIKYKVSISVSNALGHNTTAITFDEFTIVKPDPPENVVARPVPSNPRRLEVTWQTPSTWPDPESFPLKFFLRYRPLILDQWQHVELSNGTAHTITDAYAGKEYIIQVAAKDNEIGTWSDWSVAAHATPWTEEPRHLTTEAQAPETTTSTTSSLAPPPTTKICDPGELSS

[2] = target: T2, human CNTF receptor alpha component on MG87/CNTFR fibroblasts (human, UniProt P26992 23-342); assay: displacement of 125I-rat CNTF from MG87/CNTFR cells (human CNTF receptor)
T2 construct: whole, on cells; Mouse fibroblast line transfected with the human CNTFalpha receptor gene; also called CNTFRalpha; MG87/huCNTFR
T2 sequence (looked up): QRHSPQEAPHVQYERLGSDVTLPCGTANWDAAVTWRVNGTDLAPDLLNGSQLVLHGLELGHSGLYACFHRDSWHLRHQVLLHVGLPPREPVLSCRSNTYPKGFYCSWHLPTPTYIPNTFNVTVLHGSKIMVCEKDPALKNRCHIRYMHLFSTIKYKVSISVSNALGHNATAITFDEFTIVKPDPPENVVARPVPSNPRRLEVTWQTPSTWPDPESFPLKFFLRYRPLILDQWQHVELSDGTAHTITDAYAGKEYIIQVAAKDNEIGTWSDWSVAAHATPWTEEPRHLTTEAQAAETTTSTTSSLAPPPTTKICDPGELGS
Experimental: MG87/CNTFR is a fibroblast cell line transfected with the human CNTFα receptor gene (Squinto, et al., 1990, Neuron 5:757–766; Davis et al., 1991, Science 253:59–63). Binding Assays Binding was performed directly on cell monolayers. Cells in culture wells were washed once with assay buffer consisting of phosphate buffered saline (PBS; pH 7.4), 0.1 mM bacitracin, 1 mM PMSF, 1 µg/ml leupeptin, and 1 mg/ml BSA. […] Non-specific binding was determined in the presence of 1,000-fold excess of unlabelled CNTF. Specific binding towards MG87/CNTFR was 80–90%. Data were analyzed using the […] program (ISI, Philadelphia, Pa.).

Binder	IC50 [1]	fold less potent than unlabelled rat CNTF in displacing 125I-rat CNTF [1]	IC50 [2]	fold less potent than rat CNTF [2]
B1	25 nM	90 fold	30 nM	12 fold
B2	0.28 nM		2.8 nM	
